According to paper PMC7085345 (The Biochemical journal, 2019):
Where two headings read alike, the source gives them in different places.

Legend:
Test in all cases: FRET or BRET
FRET or BRET [1] = target: the molecule itself
FRET or BRET [2] = target: the molecule itself; remark: listed apart in the source
FRET or BRET [3] = target: the molecule itself; remark: listed apart in the source
FRET or BRET [4] = target: the molecule itself; remark: listed apart in the source
FRET or BRET [5] = target: the molecule itself; remark: listed apart in the source

B1: CYP2E1-BODIPY(1:2): N-terminally truncated (Δ3–20), C-terminally His-tagged CYP2E1 labeled with BODIPY 577/618 maleimide at 1:2 protein-to-label ratio (enzyme, human, UniProt P05181 1-493, looked up)
chain: MSSMWRQVHSSWNLPPGPFPLPIIGNLFQLELKNIPKSFTRLAQRFGPVFTLYVGSQRMVVMHGYKAVKEALLDYKDEFSGRGDLPAFHAHRDRGIIFNNGPTWKDIRRFSLTTLRNYGMGKQGNESRIQREAHFLLEALRKTQGQPFDPTFLIGCAPCNVIADILFRKHFDYNDEKFLRLMYLFNENFHLLSTPWLQLYNNFPSFLHYLPGSHRKVIKNVAEVKEYVSERVKEHHQSLDPNCPRDLTDCLLVEMEKEKHSAERLYTMDGITVTVADLFFAGTETTSTTLRYGLLILMKYPEIEEKLHEEIDRVIGPSRIPAIKDRQEMPYMDAVVHEIQRFITLVPSNLPHEATRDTIFRGYLIPKGTVVVPTLDSVLYDNQEFPDPEKFKPEHFLNENGKFKYSDYFKPFSTGKRVCAGEGLARMELFLLLCAILQHFNLKPLVDPKDIDLSPIHIGFGCIPPRYKLCVIPRS
modifications: BODIPY 577/618 maleimide on cysteines, two molar equivalents (presumably Cys488 and Cys261, Cys268 and/or Cys480)
- (Lipid/CYP2E1)50% (FRET or BRET [1]): 393 lipid-to-P450 molar ratio
- (Lipid/CYP2E1)50% (FRET or BRET [2]): 4320 lipid-to-P450 molar ratio
- (Lipid/CYP2E1)50% (FRET or BRET [3]): 383 lipid-to-P450 molar ratio
- (Lipid/CYP2E1)50% (FRET or BRET [4]): 5890 lipid-to-P450 molar ratio
- (Lipid/CYP2E1)50% (FRET or BRET [5]): 2440 lipid-to-P450 molar ratio
